Consider 34 variants from the Human Domainome abundance scans (Beltran et al. 2025).

± gives the uncertainty stated by the source.

B1: Zinc finger MYM-type protein 3, residues 589 to 668; numbered along this chain, Q14202 (parent)
chain: LSCHYCHSLFSGKPEVLDWQDQVFQFCCRDCCEDFKRLRGVVSQCEHCRQEKLLHEKLRFSGVEKSFCSEGCVLLYKQDF

In the data set the parent is B1. The data set is described as follows: abundance fitness (aPCA) (normalised: wild type 0, dead -1); higher = more abundant; growth selection in yeast, the domain comes from the species named. The settings on record: Homo sapiens.
On to LSCHYCHSLFSGKPEVLDWRDQVFQFCCRDCCEDFKRLRGVVSQCEHCRQEKLLHEKLRFSGVEKSFCSEGCVLLYKQDF [Q20R], for which the abundance fitness was determined as 0.151 ± 0.043. With LSCHYCHSLFSGKPEVLDWQDQVFQFCCRDCCEDFKRLRGVVSQCEHCRQEKLLHEKLRFSGVEPSFCSEGCVLLYKQDF [K65P] the figure was 0.325 ± 0.49; with LFCHYCHSLFSGKPEVLDWQDQVFQFCCRDCCEDFKRLRGVVSQCEHCRQEKLLHEKLRFSGVEKSFCSEGCVLLYKQDF [S2F], 0.141 ± 0.084; with LVCHYCHSLFSGKPEVLDWQDQVFQFCCRDCCEDFKRLRGVVSQCEHCRQEKLLHEKLRFSGVEKSFCSEGCVLLYKQDF [S2V], 0.135 ± 0.049. With LECHYCHSLFSGKPEVLDWQDQVFQFCCRDCCEDFKRLRGVVSQCEHCRQEKLLHEKLRFSGVEKSFCSEGCVLLYKQDF [S2E] the figure was 0.159 ± 0.058; with RSCHYCHSLFSGKPEVLDWQDQVFQFCCRDCCEDFKRLRGVVSQCEHCRQEKLLHEKLRFSGVEKSFCSEGCVLLYKQDF [L1R], -0.439 ± 0.076; with VSCHYCHSLFSGKPEVLDWQDQVFQFCCRDCCEDFKRLRGVVSQCEHCRQEKLLHEKLRFSGVEKSFCSEGCVLLYKQDF [L1V], 0.364 ± 0.051. With WSCHYCHSLFSGKPEVLDWQDQVFQFCCRDCCEDFKRLRGVVSQCEHCRQEKLLHEKLRFSGVEKSFCSEGCVLLYKQDF [L1W] the figure was -0.641 ± 0.079; with LSCHYCHSLFSGFPEVLDWQDQVFQFCCRDCCEDFKRLRGVVSQCEHCRQEKLLHEKLRFSGVEKSFCSEGCVLLYKQDF [K13F], -0.135 ± 0.067; with LSCHYCHSLFSGKPEVLDWQDQVFQFCCRDCCEDFKRLRGVVSQCEHCRQEKLLHEKLRFSGVEKSWCSEGCVLLYKQDF [F67W], -0.302 ± 0.32. Take LSCHYCHSLFSGKPEVLDWQDQVFQFCCRDCCEDFKRLRGVVSQCEHCRQEKLLHEKLRFSGVEKSFCSEGCVLLYQQDF [K77Q]: the abundance fitness was -0.149 ± 0.38.

For the variant LSCHYCHSLFSGKPEVLDWQDQVFQFCCRDCCEDFERLRGVVSQCEHCRQEKLLHEKLRFSGVEKSFCSEGCVLLYKQDF [K36E], the abundance fitness is -0.01 ± 0.044. In the case of LSCHYCHSLFSGKPEVLDWQTQVFQFCCRDCCEDFKRLRGVVSQCEHCRQEKLLHEKLRFSGVEKSFCSEGCVLLYKQDF [D21T], the abundance fitness is 0.004 ± 0.051. With LSCHYCHSLFSGKPETLDWQDQVFQFCCRDCCEDFKRLRGVVSQCEHCRQEKLLHEKLRFSGVEKSFCSEGCVLLYKQDF [V16T] the figure was -0.03 ± 0.055; with LSCHYCHSLFSGKPECLDWQDQVFQFCCRDCCEDFKRLRGVVSQCEHCRQEKLLHEKLRFSGVEKSFCSEGCVLLYKQDF [V16C], -0.003 ± 0.063; with LSCHYCHSLFSGKPEVLDWQDKVFQFCCRDCCEDFKRLRGVVSQCEHCRQEKLLHEKLRFSGVEKSFCSEGCVLLYKQDF [Q22K], -0.075 ± 0.058. As for LSCHYCHSLFSGKPEVLDWQDCVFQFCCRDCCEDFKRLRGVVSQCEHCRQEKLLHEKLRFSGVEKSFCSEGCVLLYKQDF [Q22C], the abundance fitness was 0.117 ± 0.058. Turning to LSCHYCHSLFSGKPEVLDWQDQVFQFCCRDCCEDFKRLRGVVSQCEHCRQEKLLHEKLRFSGVEKSFCSEGCVLLYKQDR [F80R], the abundance fitness amounted to 0.522 ± 0.082. With LSCHYCHSLFSGKPEVLDWQDQVFQFCCRDCCEDFKRLRGVVSQCEHCRQEKLLHEKLRFSGVEKQFCSEGCVLLYKQDF [S66Q] the figure was -0.618 ± 0.35. For the variant LSCVYCHSLFSGKPEVLDWQDQVFQFCCRDCCEDFKRLRGVVSQCEHCRQEKLLHEKLRFSGVEKSFCSEGCVLLYKQDF [H4V], the abundance fitness worked out at 0.054 ± 0.04.

Take LSCGYCHSLFSGKPEVLDWQDQVFQFCCRDCCEDFKRLRGVVSQCEHCRQEKLLHEKLRFSGVEKSFCSEGCVLLYKQDF [H4G]: the abundance fitness came out at 0.29 ± 0.038. With LSCHYCHSLFSGKPEVLDWQDQVFQFCCRDCCEDFKRLRGVVSQCEHCAQEKLLHEKLRFSGVEKSFCSEGCVLLYKQDF [R49A], the abundance fitness was -0.507 ± 0.2. With LSCHYCHSLFSGKPEVLDWQDQVFQFCCRDCCEDFKRLRGVVSQCEHCMQEKLLHEKLRFSGVEKSFCSEGCVLLYKQDF [R49M] the figure was -0.482 ± 0.5. With LSCHYCHSLFSGKPEVLDWQDQVFQFCCEDCCEDFKRLRGVVSQCEHCRQEKLLHEKLRFSGVEKSFCSEGCVLLYKQDF [R29E] the figure was 0.013 ± 0.045; with LSCHYCHSLFSGKPEVLDQQDQVFQFCCRDCCEDFKRLRGVVSQCEHCRQEKLLHEKLRFSGVEKSFCSEGCVLLYKQDF [W19Q], 0.225 ± 0.066; with LSCHYCHSLFSGKPEVLDWQDQVFQFCCRDCCEDFKRLRGVVSQCEHCRQEKELHEKLRFSGVEKSFCSEGCVLLYKQDF [L53E], 0.064 ± 0.14. With LSCHYCHSLFSGKPEVLDWQDQVFQFCCRDCCEDFKRLRGVVSQDEHCRQEKLLHEKLRFSGVEKSFCSEGCVLLYKQDF [C45D] the figure was -0.658 ± 0.22. Take LSCHYCHSLFSGKPEVLDWQDQVFQFCCRDCCEDFKRLRGVVSQREHCRQEKLLHEKLRFSGVEKSFCSEGCVLLYKQDF [C45R]: the abundance fitness was -0.742 ± 0.13. The same measure for LSCHYCHSLFSGKPEVLDWQDQVFQFLCRDCCEDFKRLRGVVSQCEHCRQEKLLHEKLRFSGVEKSFCSEGCVLLYKQDF [C27L]: -0.89 ± 0.08; for LSCHYCHSLFSGKPQVLDWQDQVFQFCCRDCCEDFKRLRGVVSQCEHCRQEKLLHEKLRFSGVEKSFCSEGCVLLYKQDF [E15Q]: -0.086 ± 0.068. With LSCHYCHSLFSGKPDVLDWQDQVFQFCCRDCCEDFKRLRGVVSQCEHCRQEKLLHEKLRFSGVEKSFCSEGCVLLYKQDF [E15D] the figure was -0.155 ± 0.097; with LSCHYCHSLFSGKPEVLDWQDQVFQFCCRDCCEDFKRLRGVVSQCEHCRQEKLLHEKLRFSGVEKSFCSEGCVLLYKQEF [D79E], 0.018 ± 0.15; with LSCHYCHSLFSGKPEVLDWQDQVFQFCCRDCCEDFKRLRGVVSQCEHCRQEKLLTEKLRFSGVEKSFCSEGCVLLYKQDF [H55T], 0.431 ± 0.09.

As to LSCHYCHSLFSGKPEVPDWQDQVFQFCCRDCCEDFKRLRGVVSQCEHCRQEKLLHEKLRFSGVEKSFCSEGCVLLYKQDF [L17P], the abundance fitness was -0.311 ± 0.071.
